T1: UGT92K1 (Ginkgo biloba, UniProt A0A2Z2PC79)
T1 construct: gene UGT7
T1 sequence (A0A2Z2PC79 1-496): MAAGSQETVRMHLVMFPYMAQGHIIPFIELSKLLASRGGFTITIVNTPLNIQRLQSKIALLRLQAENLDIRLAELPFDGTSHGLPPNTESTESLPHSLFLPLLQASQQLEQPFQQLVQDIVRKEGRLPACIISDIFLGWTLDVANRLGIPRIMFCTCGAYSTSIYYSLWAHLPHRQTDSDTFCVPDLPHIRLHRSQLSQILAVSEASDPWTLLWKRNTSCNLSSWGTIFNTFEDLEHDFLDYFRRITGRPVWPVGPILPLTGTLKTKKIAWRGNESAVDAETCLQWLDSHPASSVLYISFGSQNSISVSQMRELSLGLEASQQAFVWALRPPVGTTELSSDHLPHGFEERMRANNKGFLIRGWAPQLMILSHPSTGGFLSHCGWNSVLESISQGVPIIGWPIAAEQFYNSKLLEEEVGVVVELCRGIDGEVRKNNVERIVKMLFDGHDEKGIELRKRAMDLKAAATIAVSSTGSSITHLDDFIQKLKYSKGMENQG


Tests used:
UGT92K1 = biological target: T1, UGT92K1; experiment: HPLC glucosylation assay, product identified with authentic standard; type: biochemical; settings: 100 μM substrate; 4 mM UDP-glucose; Tris-HCl pH 7.0; 30°C; product genistein 7-O-glucoside
purified protein [1] = substrate: O=c1cc(-c2ccc(O)c(O)c2)oc2cc(O)cc(O)c12; experiment: purified protein; type: biochemical, Ginkgo biloba; settings: 4 mM UDP-glucose, Tris-HCl pH 7.0, 30°C
purified protein [2] = substrate: COC(=O)c1cc(O)c(O)c(O)c1; experiment: purified protein; type: biochemical, Ginkgo biloba; settings: 4 mM UDP-glucose, Tris-HCl pH 7.0, 30°C
purified protein [3] = substrate: O=C(O[C@@H]1Cc2c(O)cc(O)cc2O[C@H]1c1ccc(O)c(O)c1)c1cc(O)c(O)c(O)c1; experiment: purified protein; type: biochemical, Ginkgo biloba; settings: 4 mM UDP-glucose, Tris-HCl pH 7.0, 30°C
purified protein [4] = substrate: O=c1c(O)c(-c2ccc(O)c(O)c2)oc2cc(O)cc(O)c12; experiment: purified protein; type: biochemical, Ginkgo biloba; settings: 4 mM UDP-glucose, Tris-HCl pH 7.0, 30°C
purified protein [5] = substrate: O=c1c(-c2ccc(O)cc2)coc2cc(O)cc(O)c12; experiment: purified protein; type: biochemical, Ginkgo biloba; settings: 4 mM UDP-glucose, Tris-HCl pH 7.0, 30°C
purified protein [6] = substrate: O=C(O[C@@H]1Cc2c(O)cc(O)cc2O[C@H]1c1cc(O)c(O)c(O)c1)c1cc(O)c(O)c(O)c1; experiment: purified protein; type: biochemical, Ginkgo biloba; settings: 4 mM UDP-glucose, Tris-HCl pH 7.0, 30°C
purified protein [7] = substrate: O=C(O[C@@H]1Cc2c(O)cc(O)cc2O[C@@H]1c1cc(O)c(O)c(O)c1)c1cc(O)c(O)c(O)c1; experiment: purified protein; type: biochemical, Ginkgo biloba; settings: 4 mM UDP-glucose, Tris-HCl pH 7.0, 30°C
purified protein [8] = substrate: O=c1cc(-c2ccc(O)cc2)oc2cc(O)cc(O)c12; experiment: purified protein; settings: 4 mM UDP-glucose, Tris-HCl pH 7.0, 30°C

| Molecule | HPLC glucosylation assay, product identified with authentic standard (UGT92K1) | Km (purified protein [1]) | Km (purified protein [2]) | Km (purified protein [3]) | Km (purified protein [4]) | Km (purified protein [5]) | Km (purified protein [6]) | Km (purified protein [7]) | Km (purified protein [8]) |
| --- | --- | --- | --- | --- | --- | --- | --- | --- | --- |
| O=c1c(-c2ccc(O)cc2)coc2cc(O)cc(O)c12 [genistein] | recombinant UGT92K1 protein only displayed activity toward genistein | – | – | – | – | – | – | – | – |
| UGT716A1 (Ginkgo biloba) (protein) MEMAGGYIMVVPFHGQGHVFPCLELCKQLAARGVAVTIVASRSIRSSLQSIANHDASGLGVRIMELREATSEEQDAHPGPFLTDTLQEPFEEMLNNLAAEAAPLPLCVIGDVMVGWVTTVCDKFHIPRVPFFTSSACSIAFEYALWKHRPLDLKEDEAFAVPGFPESMPIALSDTLHRAPHPPDHHQRNPPPFPRRGHPPPPDRGHPPPFGHGGPPHGPPHPPTGPDSNPRSPPWMNGLNESSGFLVNTCRELEAPFIEYMVKETEKPVWAVGPLLPSSFWEGSITHDSSFRSRKSNIDEKQCLEWLNSKPPASVLYVSFGSEVGPSEEEIRELAYGLEAAQKPFIWVLQAGHHHPHHQEEAEEQDLLPAGFEHRLEGRGLIIRGWAPQLLILSHPSTGGFLSHCGWNSTVESIGHGVPLLAWPIRGDQHYNAKLLVAELKVAAMIHMPKDDGMVRREEIAKGVDVLLGSEHGEKLRERAVSLKLRLASCSGSSQKMLDAFVVHLSSLQKKL | – | 28 µM | 390 µM | 14 µM | 10 µM | 310 µM | 3.2 µM | 43 µM | 230 µM |

— PMC5725826, “Characterization of UGT716A1 as a Multi-substrate UDP:Flavonoid Glucosyltransferase Gene in Ginkgo biloba” (Frontiers in Plant Science, 2017)
